Among the data in patent US20080201790A1, “Method and product for regulating cell responsiveness to external signals” (priority 1993, published 2008) are fold binding relative to GST-Ras^V12(GDP) values, retold here.

The experiment addresses GST-Ras^V12(GTPγS) agarose (UniProt P01112). As to the kind of experiment: GST-Ras^V12 agarose pull-down from COS cell lysate, anti-MEKK immunoblot. (In general: A western blot detects proteins with antibodies after separation by electrophoresis.)

B1: MEKK1 (protein encoded by p-MEKK1, transiently expressed in COS cells) (enzyme)
chain: MVTAVPAVFSKLVTMLNASGSTHFTRMRRRLMAIADEVEIAEVIQLGVEDTVDGHQDSLQAVAPTSCLENSSLEHTVHREKTGKGLSATRLSASSEDISDRLAGVSVGLPSSTTTEQPKPAVQTKGRPHSQCLNSSPLSHAQLMFPAPSAPCSSAPSVPDISKHRPQAFVPCKIPSASPQTQRKFSLQFQRNCSEHRDSDQLSPVFTQSRPPPSSNIHRPKPSRPVPGSTSKLGDATKSSMTLDLGSASRCDDSFGGGGNSGNAVIPSDETVFTPVEDKCRLDVNTELNSSIEDLLEASMPSSDTTVTFKSEVAVLSPEKAENDDTYKDDVNHNQKCKEKMEAEEEEALAIAMAMSASQDALPIVPQLQVENGEDIIIIQQDTPETLPGHTKAKQPYREDAEWLKGQQIGLGAFSSCYQAQDVGTGTLMAVKQVTYVRNTSSEQEEVVEALREEIRMMGHLNHPNIIRMLGATCEKSNYNLFIEWMAGGSVAHLLSKYGAFKESVVINYTEQLLRGLSYLHENQIIHRDVKGANLLIDSTGQRLRIADFGAAARLASKGTGAGEFQGQLLGTIAFMAPEVLRGQQYGRSCDVWSVGCAIIEMACAKPPWNAEKHSNHLALIFKIASATTAPSIPSHLSPGLRDVAVRCLELQPQDRPPSRELLKHPVFRTTW
In turn, B1 had a fold binding relative to GST-Ras^V12(GDP) above 5 fold.
